Measured values taken from patent publication US20230364207A1.

Tests used:
trastuzumab = assay: cell-based or functional assay
[1] = target: rabbit IgG (rabbit polyclonal IgG antibody 1 and 2)
[2] = target: IgG in the sera of monkeys
[3] = target: IgG in the sera of rabbits
[4] = target: IgG1 in the sera of humans
[5] = target: human IVIg (an intravenous human immunoglobulin)

Molecule	Fold of activity relative to wild-type (ELISA-based human IgG1 cleavage) (trastuzumab)	activity of cleaving human IgG1 relative to wild-type IdeE (SDS-PAGE) (trastuzumab)	further results
IdeE mutant T24S (enzyme)	2.18 fold	–	–
IdeE mutant A59V (enzyme)	2.68 fold	2 fold	–
IdeE mutant T24A (enzyme)	2.23 fold	2 fold	–
IdeE mutant T8E (enzyme)	2.09 fold	–	–
IdeE C-terminal truncated mutant WT_delC5 (enzyme)	–	–	cleavage activity on human IgG1 relative to wild-type IdeE (SDS-PAGE) (trastuzumab): > 2 fold
IdeE mutant A10K (enzyme)	1.99 fold	–	–
IdeE mutant T8W (enzyme)	2.58 fold	2 fold	–
IdeE mutant R280H (enzyme)	2.3 fold	2 fold	–
IdeE mutant T24G (enzyme)	2.09 fold	–	–
IdeE mutant T8D (enzyme)	2.21 fold	2 fold	–
IdeE mutant A10R (enzyme)	2.2 fold	–	–
IdeE mutant T8Y (enzyme)	2.3 fold	–	–
IdeE C-terminal truncated mutant WT_delC10 (enzyme)	–	–	cleavage activity on human IgG1 relative to wild-type IdeE (SDS-PAGE) (trastuzumab): > 2 fold
IdeE mutant A59L (enzyme)	2.41 fold	2 fold	–
IdeE mutant R280K (enzyme)	2.2 fold	–	–
IdeE mutant A59I (enzyme)	2.31 fold	–	–
IdeE mutant E97D (enzyme)	2 fold	2 fold	–
IdeE combinatorial mutant E97D_del18 (protein) ITSVWTKGVTPLTPEQFRYNNEDVIHAPYLAHQGWYDITKAFDGKDNLLCGAATAGNMLHWWFDQNKTEIEAYLSKHPDKQKIIFNNQELFDLKAAIDTKDSQTNSQLFNYFRDKAFPNLSARQLGVMPDLVLDMFINGYYLNVFKTQSTDVNRPYQDKDKRGGIFDAVFTRGDQTTLLTARHDLKNKGLNDISTIIKQELTEGRALALSHTYANVSISHVINLWGADFNAEGNLEAIYVTDSDANASIGMKKYFVGINAHRHVAISAKKIEGENIGAQVLGLFTLSSGKDIWQKLSHHHHHH	–	–	cleavage of immunoglobulins of different species (SDS-PAGE) [1]: E97D_del18 can effectively cleave ... rabbit IgG; cleavage of serum IgG of different species (SDS-PAGE) [2]: E97D_del18 can effectively cleave IgG in the sera of rabbits, dogs and monkeys; cleavage of immunoglobulins of different species (SDS-PAGE) (dog IgG): E97D_del18 can effectively cleave dog IgG; cleavage of serum IgG of different species (SDS-PAGE) (dog IgG): E97D_del18 can effectively cleave IgG in the sera of rabbits, dogs and monkeys; cleavage of serum IgG of different species (SDS-PAGE) (IgG in the sera of pigs): IgG in the sera of pigs was cleaved more effectively; cleavage of serum IgG of different species (SDS-PAGE) [3]: IgG in the sera of rabbits was cleaved most effectively; cleavage in human serum in vitro (SDS-PAGE, 25 kD Fc fragment) [4]: E97D_del18 can effectively and specifically cleave IgG1 in the sera of humans; cleavage of serum IgG of different species (SDS-PAGE) (IgG in the sera of rats): IgG in the sera of rats and mice was nearly uncleaved; cleavage of human IVIg in mouse serum and plasma in vitro (SDS-PAGE) [5]: E97D_del18 can effectively cleave human IVIg in both the sera and plasmas of mice; cleavage in mouse serum in vitro (SDS-PAGE, 25 kD Fc fragment) (IgG in the sera of mice): has very low or no activity of cleaving IgG1 in the sera of mice; cleavage of serum IgG of different species (SDS-PAGE) (IgG in the sera of mice): IgG in the sera of rats and mice was nearly uncleaved
